This is an account of results in paper PMC4540320, “A Newly-Identified Polymorphism in Rhesus Macaque Complement Factor H Modulates Binding Affinity for Meningococcal FHbp” (PLoS ONE, 2015).

Assay [1] addresses rhesus macaque serum Factor H, sequence type HP/HP (H352 with P360, homozygous) (rhesus macaque (endogenous in serum)). Briefly: SPR; Biacore X100 Plus, CM5 chip with immobilised goat anti-human FH; FH (~600 RU) captured from a 1:50 serum dilution; FHbp 3.16 to 316 nM in solution, single-cycle kinetics, 1:1 binding model.
Assay [2] has as its target rhesus macaque serum Factor H, sequence type HP/YP (heterozygous) (rhesus macaque (endogenous in serum)). The assay is described as above.
Assay [3] addresses rhesus macaque serum Factor H, sequence type HP/YS (heterozygous) (rhesus macaque (endogenous in serum)). The description is as above.
The target of assay [4] is rhesus macaque serum Factor H, sequence type YS/YP (heterozygous) (rhesus macaque (endogenous in serum)). The description is as above.
Assay [5] deals with T1, human complement Factor H (human (endogenous in serum), UniProt P08603 19-1231).
T1 construct: also called human FH; human serum FH; source: endogenous, human serum; also purified from the same subject
Put plainly: SPR; as the serum capture assay, but with human FH purified from the same subject captured on immobilised goat anti-human FH; FHbp in solution, single-cycle kinetics, 1:1 binding model. To be noted: both partners purified.

In assay [6] the target is T1, human complement Factor H. Put plainly: SPR; Biacore X100 Plus, CM5 chip with immobilised goat anti-human FH; FH (~600 RU) captured from a 1:50 serum dilution; FHbp 3.16 to 316 nM in solution, single-cycle kinetics, 1:1 binding model. To be noted: one partner purified. Background: SPR reads the build-up and loss of mass on a sensor chip optically.

T1 sequence (P08603 19-1231): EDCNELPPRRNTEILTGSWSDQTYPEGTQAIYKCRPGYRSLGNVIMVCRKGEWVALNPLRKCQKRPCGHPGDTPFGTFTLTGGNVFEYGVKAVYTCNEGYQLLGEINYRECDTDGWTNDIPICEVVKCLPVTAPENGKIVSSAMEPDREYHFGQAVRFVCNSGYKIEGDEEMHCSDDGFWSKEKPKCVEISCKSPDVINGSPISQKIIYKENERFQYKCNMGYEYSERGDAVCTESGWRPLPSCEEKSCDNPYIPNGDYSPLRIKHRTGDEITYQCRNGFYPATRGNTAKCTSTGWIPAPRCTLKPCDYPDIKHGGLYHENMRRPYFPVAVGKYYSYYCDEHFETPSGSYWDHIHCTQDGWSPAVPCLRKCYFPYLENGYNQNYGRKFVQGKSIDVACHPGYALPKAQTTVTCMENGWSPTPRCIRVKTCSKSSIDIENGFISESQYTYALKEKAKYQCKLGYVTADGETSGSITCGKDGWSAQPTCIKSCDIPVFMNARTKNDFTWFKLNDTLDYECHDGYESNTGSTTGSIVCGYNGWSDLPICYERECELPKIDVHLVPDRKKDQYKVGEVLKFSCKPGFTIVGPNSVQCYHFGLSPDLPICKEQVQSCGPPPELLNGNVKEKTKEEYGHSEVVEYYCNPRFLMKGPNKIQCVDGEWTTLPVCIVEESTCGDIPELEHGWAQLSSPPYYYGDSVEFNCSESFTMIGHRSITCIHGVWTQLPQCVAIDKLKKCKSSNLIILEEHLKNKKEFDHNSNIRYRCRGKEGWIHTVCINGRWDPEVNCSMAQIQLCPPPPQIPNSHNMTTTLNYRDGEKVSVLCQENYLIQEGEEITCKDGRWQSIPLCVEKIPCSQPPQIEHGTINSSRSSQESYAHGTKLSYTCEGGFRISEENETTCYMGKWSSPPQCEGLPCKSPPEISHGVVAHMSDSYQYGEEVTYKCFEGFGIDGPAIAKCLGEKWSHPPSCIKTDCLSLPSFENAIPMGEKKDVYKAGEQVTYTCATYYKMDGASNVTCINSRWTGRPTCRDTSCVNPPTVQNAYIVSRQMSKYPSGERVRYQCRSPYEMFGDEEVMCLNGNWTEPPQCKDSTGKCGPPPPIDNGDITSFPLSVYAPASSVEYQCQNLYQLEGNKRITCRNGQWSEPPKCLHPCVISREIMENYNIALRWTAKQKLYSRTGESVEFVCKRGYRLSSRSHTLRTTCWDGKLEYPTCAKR

For “recombinant Factor H binding protein (FHbp) ID 1 (from UniProt Q9JXV4 20-274) (natural protein)”, the dissociation constant Kd was determined as 0.1 µM in assay [1], 0.0182 µM in assay [2], 0.0995 µM in assay [3] and 0.0104 µM in assay [4]. Besides, the kon in assay [1] worked out at 180000 M⁻¹ s⁻¹; in assay [2], 180000 M⁻¹ s⁻¹; in assay [3], 190000 M⁻¹ s⁻¹; in assay [4], 180000 M⁻¹ s⁻¹.

B1: recombinant Factor H binding protein (FHbp) ID 1 (natural protein)
chain: CSSGGGGVAADIGAGLADALTAPLDHKDKGLQSLTLDQSVRKNEKLKLAAQGAEKTYGNGDSLNTGKLKNDKVSRFDFIRQIEVDGQLITLESGEFQVYKQSHSALTAFQTEQIQDSEHSGKMVAKRQFRIGDIAGEHTSFDKLPEGGRATYRGTAFGSDDAGGKLTYTIDFAAKQGNGKIEHLKSPELNVDLAAADIKPDGKRHAVISGSVLYNQAEKGSYSLGIFGGKAQEVAGSAEVKTVNGIRHIGLAAKQ
notes: also called meningococcal FHbp; source: recombinant, purified as described previously [14] with a second ion exchange chromatography step (HiTrap SP HP)
On to B1, for which, in assay [5], the dissociation constant Kd was found to be 0.0182 µM and the kon came to 220000 M⁻¹ s⁻¹. Further, in assay [6], the dissociation constant (Kd) amounted to 0.0198 µM and the kon is 190000 M⁻¹ s⁻¹.

A word on the Kd: it is the concentration at which binding is half-saturated. What is called kon is a measure of how fast the partners come together.
